Patent US20170204167A1 (INSTITUTE FOR RESEARCH IN BIOMEDICINE, published 2017)

B1: FI28 variant 1 (antibody, V domains shown)
VH: EVQLVESGGGAVQPGESLKLSCAASGFTFSNYGMHWVRQAPGKGLEWVAVISYDGSNKYYADSVKGRFTISRDNSKDTLYLQMNSLRAEDTALFYCAKERPLRLLRYFDWLSGGANDYWGQGTLVTVSS
VL: DIVMTQSPDSLAVSLGERATINCKSSQSVLYSSNNKNYLAWYQQKPGQPPKLLIDWASTRESGVPDRFSGSGSGTDFTLTISNLQVEDVAVYYCQQYYRSPSFGQGTKLEIK
B2: FI6 variant 3 (antibody, V domains shown)
VH: QVQLVESGGGVVQPGRSLRLSCAASGFTFSTYAMHWVRQAPGKGLEWVAVISYDANYKYYADSVKGRFTISRDNSKNTLYLQMNSLRAEDTAVYYCAKDSQLRSLLYFEWLSQGYFDYWGQGTLVTVSS
VL: not shown
B3: FI6 variant 2 (antibody, V domains shown)
VH: QVQLVQSGGGVVQPGRSLRLSCVASGFTFSTYAMHWVRQAPGRGLEWVAVISYDGNYKYYADSVKGRFSISRDNSNNTLHLEMNTLRTEDTALYYCAKDSQLRSLLYFEWLSQGYFDPWGQGTLVTVTS
VL: DIQMTQSPDSLAVSLGARATINCKSSQSVTFNYKNYLAWYQQKPGQPPKVLIYWASARESGVPDRFSGSGSGTDFTLTISSLQAEDVAVYYCQQHYRTPPTFGQGTKVEIK

Experiments:
HA of H3N2 A/WI/67/05 = HA of H3N2 A/WI/67/05 (influenza A virus H3N2 A/WI/67/05); test: cell-based or functional assay
[1] = molecular target: T1, HA of H1N1 A/Solomon Islands/3/06 (influenza A virus H1N1 A/Solomon …); test: cell-based or functional assay
[2] = molecular target: T2, HA of H1N1 A/New Caledonia/20/99 (influenza A virus H1N1 A/New …); test: cell-based or functional assay
HA of H3N2 A/CA/7/04 = HA of H3N2 A/CA/7/04 (influenza A virus H3N2 A/CA/7/04); test: cell-based or functional assay
[3] = molecular target: T1, HA of H1N1 A/Solomon Islands/3/06; test: ELISA on recombinant or purified HA
[4] = molecular target: T2, HA of H1N1 A/New Caledonia/20/99; test: ELISA on recombinant or purified HA

Row | Binder | Neutralization of infectious viruses (IC50, µg/ml) (HA of H3N2 A/WI/67/05) [µg/mL] | Neutralization of infectious viruses (IC50, µg/ml) [1] [µg/mL] | Neutralization of infectious viruses (IC50, µg/ml) [2] [µg/mL] | Neutralization of infectious viruses (IC50, µg/ml) (HA of H3N2 A/CA/7/04) [µg/mL] | EC50 [3] [µg/mL] | EC50 [4] [µg/mL]
1 | B1 | > 100 | > 100 | > 100 | > 100 |  | 
2 | B2 |  |  |  |  | 0.019 | 0.017
3 | B3 | 12.5 | 8.8 | 6.3 | 7.9 | 0.018 | 0.015
